Results from the supplement of paper PMC11316812.
± gives the standard deviation of the averaged measurements.

Experiments:
[1] = tested on: MCF7; assay: percentage of EdU-negative (G0-arrested) nuclei per well, 72 h; higher = more G0 arrest; details: reference: sequence is the full UniProt precursor, the tested protein was the secreted form or ectodomain
[2] = tested on: hTERT-HMEC; assay: as above; details: reference: sequence is the full UniProt precursor, the tested protein was the secreted form or ectodomain
[3] = protein concentration 0.0225 µM
[4] = protein concentration 0.03125 µM
[5] = protein concentration 0.3125 µM
[6] = protein concentration 0.0111429 µM
[7] = protein concentration 0.111429 µM
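Further: secreted proteins added to cultured cells, EdU pulse at the end, nuclei found by Hoechst imaging, EdU status from nuclear versus surrounding ring intensity ratio, PBS as neutral control.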

Row | Sequence | percentage of EdU-negative [1, 3] | percentage of EdU-negative ([1]; protein concentration 0.225 µM) | percentage of EdU-negative [2, 3] | percentage of EdU-negative ([2]; protein concentration 0.225 µM) | further results
1 | MRGPSGALWLLLALRTVLGGMEVRWCATSDPEQHKCGNMSEAFREAGIQPSLLCVRGTSADHCVQLIAAQEADAITLDGGAIYEAGKEHGLKPVVGEVYDQEVGTSYYAVAVVRRSSHVTIDTLKGVKSCHTGINRTVGWNVPVGYLVESGRLSVMGCDVLKAVSDYFGGSCVPGAGETSYSESLCRLCRGDSSGEGVCDKSPLERYYDYSGAFRCLAEGAGDVAFVKHSTVLENTDGKTLPSWGQALLSQDFELLCRDGSRADVTEWRQCHLARVPAHAVVVRADTDGGLIFRLLNEGQRLFSHEGSSFQMFSSEAYGQKDLLFKDSTSELVPIATQTYEAWLGHEYLHAMKGLLCDPNRLPPYLRWCVLSTPEIQKCGDMAVAFRRQRLKPEIQCVSAKSPQHCMERIQAEQVDAVTLSGEDIYTAGKTYGLVPAAGEHYAPEDSSNSYYVVAVVRRDSSHAFTLDELRGKRSCHAGFGSPAGWDVPVGALIQRGFIRPKDCDVLTAVSEFFNASCVPVNNPKNYPSSLCALCVGDEQGRNKCVGNSQERYYGYRGAFRCLVENAGDVAFVRHTTVFDNTNGHNSEPWAAELRSEDYELLCPNGARAEVSQFAACNLAQIPPHAVMVRPDTNIFTVYGLLDKAQDLFGDDHNKNGFKMFDSSNYHGQDLLFKDATVRAVPVGEKTTYRGWLGLDYVAALEGMSSQQCSGAAAPAPGAPLLPLLLPALAARLLPPAL | 26.1 ± 0.62% | 27.8 ± 1.6% | 6.116 ± 0.02% | 26.6 ± 0.69% | 
2 | MRGTPGDADGGGRAVYQSMCKPITGTINDLNQQVWTLQGQNLVAVPRSDSVTPVTVAVITCKYPEALEQGRGDPIYLGIQNPEMCLYCEKVGEQPTLQLKEQKIMDLYGQPEPVKPFLFYRAKTGRTSTLESVAFPDWFIASSKRDQPIILTSELGKSYNTAFELNIND [Q9NZH8] | 22.9 ± 0.82% | 23 ± 2.5% | 4.85 ± 0.94% | 5.31 ± 0.92% | 
3 | MRHLGAFLFLLGVLGALTEMCEIPEMDSHLVEKLGQHLLPWMDRLSLEHLNPSIYVGLRLSSLQAGTKEDLYLHSLKLGYQQCLLGSAFSEDDGDCQGKPSMGQLALYLLALRANCEFVRGHKGDRLVSQLKWFLEDEKRAIGHDHKGHPHTSYYQYGLGILALCLHQKRVHDSVVDKLLYAVEPFHQGHHSVDTAAMAGLAFTCLKRSNFNPGRRQRITMAIRTVREEILKAQTPEGHFGNVYSTPLALQFLMTSPMRGAELGTACLKARVALLASLQDGAFQNALMISQLLPVLNHKTYIDLIFPDCLAPRVMLEPAAETIPQTQEIISVTLQVLSLLPPYRQSISVLAGSTVEDVLKKAHELGGFTYETQASLSGPYLTSVMGKAAGEREFWQLLRDPNTPLLQGIADYRPKDGETIELRLVSW |  |  |  |  | percentage of EdU-negative ([1]; protein concentration 0.012 µM): 27 ± 1.9%; percentage of EdU-negative ([1]; protein concentration 0.12 µM): 25.5 ± 1.3%; percentage of EdU-negative ([2]; protein concentration 0.012 µM): 5.24 ± 0.2%; percentage of EdU-negative ([2]; protein concentration 0.12 µM): 6.61 ± 0.18%
4 | MRIMLLFTAILAFSLAQSFGAVCKEPQEEVVPGGGRSKRDPDLYQLLQRLFKSHSSLEGLLKALSQASTDPKESTSPEKRDMHDFFVGLMGKRSVQPDSPTDVNQENVPSFGILKYPPRAE [Q9UHF0] | 22.8 ± 2.6% | 25.6 ± 1.7% | 5.911 ± 0.0092% | 5.91 ± 0.065% | 
5 | MRIWWLLLAIEICTGNINSQDTCRQGHPGIPGNPGHNGLPGRDGRDGAKGDKGDAGEPGRPGSPGKDGTSGEKGERGADGKVEAKGIKGDQGSRGSPGKHGPKGLAGPMGEKGLRGETGPQGQKGNKGDVGPTGPEGPRGNIGPLGPTGLPGPMGPIGKPGPKGEAGPTGPQGEPGVRGIRGWKGDRGEKGKIGETLVLPKSAFTVGLTVLSKFPSSDMPIKFDKILYNEFNHYDTAAGKFTCHIAGVYYFTYHITVFSRNVQVSLVKNGVKILHTKDAYMSSEDQASGGIVLQLKLGDEVWLQVTGGERFNGLFADEDDDTTFTGFLLFSSP [P0C862] |  |  |  |  | percentage of EdU-negative [1, 4]: 28.2 ± 0.72%; percentage of EdU-negative [1, 5]: 30.09 ± 0.089%; percentage of EdU-negative [2, 4]: 5.3 ± 0.76%; percentage of EdU-negative [2, 5]: 7.183 ± 0.018%
6 | MRKELQLSLSVTLLLVCGFLYQFTLKSSCLFCLPSFKSHQGLEALLSHRRGIVFLETSERMEPPHLVSCSVESAAKIYPEWPVVFFMKGLTDSTPMPSNSTYPAFSFLSAIDNVFLFPLDMKRLLEDTPLFSWYNQINASAERNWLHISSDASRLAIIWKYGGIYMDTDVISIRPIPEENFLAAQASRYSSNGIFGFLPHHPFLWECMENFVEHYNSAIWGNQGPELMTRMLRVWCKLEDFQEVSDLRCLNISFLHPQRFYPISYREWRRYYEVWDTEPSFNVSYALHLWNHMNQEGRAVIRGSNTLVENLYRKHCPRTYRDLIKGPEGSVTGELGPGNK [Q9UNA3] |  |  |  |  | percentage of EdU-negative [1, 6]: 26.4 ± 0.46%; percentage of EdU-negative [1, 7]: 27.4 ± 2.4%; percentage of EdU-negative [2, 6]: 4.541 ± 0.041%; percentage of EdU-negative [2, 7]: 5.48 ± 1.1%
7 | MRKFAYCKVVLATSLIWVLLDMFLLLYFSECNKCDEKKERGLPAGDVLEPVQKPHEGPGEMGKPVVIPKEDQEKMKEMFKINQFNLMASEMIALNRSLPDVRLEGCKTKVYPDNLPTTSVVIVFHNEAWSTLLRTVHSVINRSPRHMIEEIVLVDDASERDFLKRPLESYVKKLKVPVHVIRMEQRSGLIRARLKGAAVSKGQVITFLDAHCECTVGWLEPLLARIKHDRRTVVCPIIDVISDDTFEYMAGSDMTYGGFNWKLNFRWYPVPQREMDRRKGDRTLPVRTPTMAGGLFSIDRDYFQEIGTYDAGMDIWGGENLEISFRIWQCGGTLEIVTCSHVGHVFRKATPYTFPGGTGQIINKNNRRLAEVWMDEFKNFFYIISPGVTKVDYGDISSRVGLRHKLQCKPFSWYLENIYPDSQIPRHYFSLGEIRNVETNQCLDNMARKENEKVGIFNCHGMGGNQVFSYTANKEIRTDDLCLDVSKLNGPVTMLKCHHLKGNQLWEYDPVKLTLQHVNSNQCLDKATEEDSQVPSIRDCNGSRSQQWLLRNVTLPEIF | 25.1 ± 1% | 23.6 ± 2.5% | 4.8 ± 0.5% | 5.577 ± 0.015% | 
8 | MRKMNTLLLVSLSFLYLKEVMGLKCNTCIYTEGWKCMAGRGTCIAKENELCSTTAYFRGDKHMYSTHMCKYKCREEESSKRGLLRVTLCCDRNFCNVF [P0C8F1] | 24.7 ± 1.3% | 27.4 ± 0.56% | 4.34 ± 0.4% | 7.87 ± 1.3% | 
9 | MRLAGPLRIVVLVVSVGVTWIVVSILLGGPGSGFPRIQQLFTSPESSVTAAPRARKYKCGLPQPCPEEHLAFRVVSGAANVIGPKICLEDKMLMSSVKDNVGRGLNIALVNGVSGELIEARAFDMWAGDVNDLLKFIRPLHEGTLVFVASYDDPATKMNEETRKLFSELGSRNAKELAFRDSWVFVGAKGVQNKSPFEQHVKNSKHSNKYEGWPEALEMEGCIPRRSTAS | 24.6 ± 1.1% | 25.8 ± 2.3% | 5.06 ± 0.4% | 6.75 ± 0.34% | 
10 | MRLAVLFSGALLGLLAAQGTGNDCPHKKSATLLPSFTVTPTVTESTGTTSHRTTKSHKTTTHRTTTTGTTSHGPTTATHNPTTTSHGNVTVHPTSNSTATSQGPSTATHSPATTSHGNATVHPTSNSTATSPGFTSSAHPEPPPPSPSPSPTSKETIGDYTWTNGSQPCVHLQAQIQIRVMYTTQGGGEAWGISVLNPNKTKVQGSCEGAHPHLLLSFPYGHLSFGFMQDLQQKVVYLSYMAVEYNVSFPHAAQWTFSAQNASLRDLQAPLGQSFSCSNSSIILSPAVHLDLLSLRLQAAQLPHTGVFGQSFSCPSDRSILLPLIIGLILLGLLALVLIAFCIIRRRPSAYQAL | 25.5 ± 1.1% | 26.5 ± 0.42% | 4.81 ± 0.13% | 7.36 ± 0.68% | 
11 | MRLGSPGLLFLLFSSLRADTQEKEVRAMVGSDVELSCACPEGSRFDLNDVYVYWQTSESKTVVTYHIPQNSSLENVDSRYRNRALMSPAGMLRGDFSLRLFNVTPQDEQKFHCLVLSQSLGFQEVLSVEVTLHVAANFSVPVVSAPHSPSQDELTFTCTSINGYPRPNVYWINKTDNSLLDQALQNDTVFLNMRGLYDVVSVLRIARTPSVNIGCCIENVLLQQNLTVGSQTGNDIGERDKITENPVSTGEKNAATWSILAVLCLLVVVAVAIGWVCRDRCLQHSYAGAWAVSPETELTGHV | 27.1 ± 2.8% | 25.8 ± 2.6% | 5.11 ± 0.35% | 6.86 ± 0.54% | 
